The text below walks through data of US20240317859A1 (published 2024).

As usually defined, the Kd is the free concentration of one partner at which half of the binding sites on the other are occupied at equilibrium, for simple one-to-one binding. Higher therefore signals lower affinity.

Positions count from the first letter of the chain named. Read-outs that look alike come from different tables or passages of the source.

What all share (test): SPR
For orientation: SPR reads the build-up and loss of mass on a sensor chip optically.

The target of test [1] is T1, FcγRIIB/C (CD32b/c) (FcγRIIB) (R&D Systems) (UniProt P31994 46-217).
T1 chain: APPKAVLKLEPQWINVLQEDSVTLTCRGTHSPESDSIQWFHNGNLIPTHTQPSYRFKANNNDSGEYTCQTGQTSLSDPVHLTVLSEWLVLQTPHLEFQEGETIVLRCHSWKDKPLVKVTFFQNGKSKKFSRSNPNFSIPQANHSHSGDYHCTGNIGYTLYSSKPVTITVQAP

The target in test [2] is Fc gamma RIIIA/CD16a, CF (FcγRIIIA(V158)) (R&D Systems).
Chain of Fc gamma RIIIA/CD16a, CF (FcγRIIIA(V158)) (R&D Systems) (chain, as listed by the source): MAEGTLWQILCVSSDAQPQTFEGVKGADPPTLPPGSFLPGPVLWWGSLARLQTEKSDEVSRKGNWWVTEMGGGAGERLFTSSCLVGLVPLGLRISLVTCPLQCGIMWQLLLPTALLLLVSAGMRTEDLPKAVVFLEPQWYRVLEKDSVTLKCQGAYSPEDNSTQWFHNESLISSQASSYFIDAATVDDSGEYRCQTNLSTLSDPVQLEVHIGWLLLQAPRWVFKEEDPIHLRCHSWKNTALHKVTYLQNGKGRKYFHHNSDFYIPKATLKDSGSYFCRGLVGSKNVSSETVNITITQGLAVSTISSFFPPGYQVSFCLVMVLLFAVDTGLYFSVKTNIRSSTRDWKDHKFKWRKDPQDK
The target of test [3] is T1, FcγRIIB/C (CD32b/c) (FcγRIIB) (R&D …).

B1: X3-KL HM268-K8 (antibody)
chain 1: QVQLVQSGPEVKKPGASVKVVCKTSGYTFTSYYIQWLKQRPGQGLEWIGWIYFGDASTKYNEKFKGRVTMTADKSTSTAYMELRSLRSDDTAVYYCASYYGSYFDYWGQGTTVTVSSASTKGPSVFPLAPSSKSTSGGTAALGCLVKDYFPEPVTVSWNSGALTSGVHTFPAVLQSSGLYSLSSVVTVPSSSLGTQTYICNVNHKPSNTKVDKKVEPKSCDKTHTCPPCPAPELLGGPDVFLFPPKPKDTLMISRTPEVTCVVVDVSDEDPEVKFNWYVDGVEVHNAKTKPREEQYNSTYRVVSVLTVLHQDWLNGKEYKCAVSNKAYPAPIEKTISKAKGQPREPQVYTLPPSRDELTKNQVSLTCLVKGFYPSDIAVEWESNGQPENNYKTTPPVLDSDGSFFLYSKLTVDKSRWQQGNVFSCSVMHEALHNHYTQKSLSLSPGK
chain 2: DIQMTQSPSSLSASVGDRVTITCRASQDISNYLNWYQQKPDGTVKLLIYSTSRLHSGVPSRFSGSGSGTDYTLTISSLQPEDFATYYCQQGSTLPFTFGQGTKLEIKRTVAAPSVFIFPPSDEQLKSGTASVVCLLNNFYPREAKVQWKVDNALQSGNSQESVTEQDSKDSTYSLSSTLTLSKADYEKHKVYACEVTHQGLSSPVTKSFNRGEC
With B1, the Kd was 736 nM in test [1] and 1250 nM in test [2].

B2: X2-K HM268-K8 (antibody)
chain 1: B1 chain 1 with G236D, D239S, Y328L
chain 2: B1 chain 2
Consider B2, for which the Kd in test [2] came to 7560 nM; in test [3], 1650 nM.

B3: X4-KS HM268-K8 (antibody)
chain 1: B1 chain 1 with S267G, I332E
chain 2: B1 chain 2
Turning to B3, the Kd in test [1] was 2550 nM; in test [2], 881 nM.

B4: X3-KS-DF HM297-H5 (antibody)
chain 1: QVQLVQSGPEVKKPGASVKIPCKASGYTFTDYNVDWVRQVPGQGLEWMGDIDPNNGGTIYNQKFKDRVTMTVDKSTRTAYMELRSLRSDDTAVYYCARWRGAMDYWGQGTLVTVSSASTKGPSVFPLAPSSKSTSGGTAALGCLVKDYFPEPVTVSWNSGALTSGVHTFPAVLQSSGLYSLSSVVTVPSSSLGTQTYICNVNHKPSNTKVDKKVEPKSCDKTHTCPPCPAPELLGGPDVFLFPPKPKDTLMISRTPEVTCVVVDVGDEDPEVKFNWYVDGVEVHNAKTKPREEQYNSTYRVVSVLTVLHQDWLNGKEYKCAVSNKALPAPIEKTISKAKGQPREPQVYTLPPSRDELTKNQVSLTCLVKGFYPSDIAVEWESNGQPENNYKTTPPVLDSDGSFFLYSKLTVDKSRWQQGNVFSCSVMHEALHNHYTQKSLSLSPGK
chain 2: B1 chain 2 with S30D, N34K, S50D, Q79K, P80Q, S92Y, F96W
In the case of B4, the Kd in test [1] worked out at 1220 nM. In other words, the single-digit micromolar range.

B5: X4-K HM268-K8 (antibody)
chain 1: B1 chain 1 with I332E
chain 2: B1 chain 2
As to B5, the Kd in test [2] came out at 236 nM; in test [3], 1050 nM.

B6: X3-KSL HM268-K8 (antibody)
chain 1: B1 chain 1 with S267G
chain 2: B1 chain 2
As to B6, the Kd in test [1] turned out to be 1240 nM; in test [2], 3460 nM.

B7: X3-KI HM268-K8 (antibody)
chain 1: B1 chain 1 with Y328L, I332E
chain 2: B1 chain 2
Regarding B7, the results for the Kd in test [1] and in test [2] were 689 nM and 162 nM, respectively.

B8: X3-K HM268-K8 (antibody)
chain 1: B1 chain 1 with Y328L
chain 2: B1 chain 2
Consider B8, for which the Kd was determined as 1380 nM in test [1] and 370 nM in test [2].

B9: X3-KS-DF HM242-C3 (antibody)
chain 1: B1 chain 1 with T24A, L37V, F53P, A56G, S57T, A72I, S77R, T112L, S267G, Y328L
chain 2: not shown
For the molecule B9, the Kd in test [1] was found to be 1170 nM.

B10: X3-KS-DF HM268-K8 (antibody)
chain 1: B1 chain 1 with S267G, Y328L
chain 2: B1 chain 2
With B10, the Kd in test [1] amounted to 2200 nM. Compared with the last molecule, the Kd is about 1.9-fold higher.

B11: X3-KSI HM268-K8 (antibody)
chain 1: B1 chain 1 with S267G, Y328L, I332E
chain 2: B1 chain 2
As for B11, the Kd was 1640 nM in test [1] and 265 nM in test [2].

B12: X3-KE HM268-K8 (antibody)
chain 1: B1 chain 1 with E293A, Y328L
chain 2: B1 chain 2
With B12, the Kd was found to be 1110 nM in test [1] and 305 nM in test [2].

B13: X2-K-DF HM242-C3 (antibody)
chain 1: QVQLVQSGPEVKKPGASVKVVCKASGYTFTSYYIQWVKQRPGQGLEWIGWIYPGDGTTKYNEKFKGRVTMTIDKSTRTAYMELRSLRSDDTAVYYCASYYGSYFDYWGQGTLVTVSSASTKGPSVFPLAPSSKSTSGGTAALGCLVKDYFPEPVTVSWNSGALTSGVHTFPAVLQSSGLYSLSSVVTVPSSSLGTQTYICNVNHKPSNTKVDKKVEPKSCDKTHTCPPCPAPELLDGPSVFLFPPKPKDTLMISRTPEVTCVVVDVSDEDPEVKFNWYVDGVEVHNAKTKPREEQYNSTYRVVSVLTVLHQDWLNGKEYKCAVSNKALPAPIEKTISKAKGQPREPQVYTLPPSRDELTKNQVSLTCLVKGFYPSDIAVEWESNGQPENNYKTTPPVLDSDGSFFLYSKLTVDKSRWQQGNVFSCSVMHEALHNHYTQKSLSLSPGK
chain 2: not shown
In test [1], B13 came in with a Kd of 1020 nM.

B14: X3-KS-DF HM242-D3 (antibody)
chain 1: B13 chain 1 with K38R, R40V, I48M, K74T, R77S, D236G, S239D, S267G
chain 2: not shown
Consider B14, for which the Kd in test [1] amounted to 2540 nM.
